Assay results from the nanobody polyreactivity screen of Harvey et al. (2022).

Experiment: yeast display, Sf9 membrane polyspecificity reagent, FACS + sequencing; frameworks hold sequencing errors
Summary of the method: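 Polyreactivity labels are assigned by the sorting gate from which each nanobody was recovered. The gates were low and high (top ~1%), set on anti-HA fluorescence for expression and streptavidin fluorescence for reagent binding. Before sorting, galactose-induced (36–48 hours) yeast display cells were stained for 1 hour at 4 °C with 10% biotinylated, detergent-solubilized Sf9 membrane reagent.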

| Sequence | polyreactivity (PSR sort gate) |
| --- | --- |
| QVQLVESGGGLVQAGGSLRLSCAASGRTFNRNAMGWYRQAPGKERELVAAISRGGGGTFYADSVKGRFTISRDNAKNTVYLQMNSLKPEDTAVYYCAAVPIAADKANGYDYWGQGTQVTVSS | low polyreactivity |
| QVQLVESGGGLVQAGGSLRLSCAASGRTFNRYAMGRYRQAPGKERELVAVITSDGRRNYADSVKGRFTISRDKAKNTVYFQINSLKPEDTAVSYCNKRSALSFVYDFDYWGQGTQVTVSS | low polyreactivity |
| QVQLVESGGGLVQAGGSLRLSCAASGRTFNSYAMGWSRQAPGKDRELVAAISRTGASTYYADSVKGRFTISRDNAQNTVYLQMHSLKPEDTAVYYCAADANSGDGYYWGHGTQVTVSS | high polyreactivity |
| QVQLVESGGGLVQAGGSLRLSCAASGRTFNVYAMGWYRQAPGKERELVAVITNGGSTNYADSVKGRFTISRDNAKNTVYLQMNSLKPEDTAVYYCAASWGYGALTPDMGYWGQGTQVTVSS | low polyreactivity |
| QVQLVESGGGLVQAGGSLRLSCAASGRTFNYNAMGCYRQAPGKERELVAAITSGGRTNYADSVKGRFTISRDNAKNTVYLQMNSLKPEDTAVYYCATEYYRYRWVGAFRYPVYYWGQGTQVTVSS | low polyreactivity |
| QVQLVESGGGLVQAGGSLRLSCAASGRTFNYNAMGWYRQAPGKERELVAAISWGGGSTFYAVSEKGRFTISRDNAKNTVYLQMNTLKPEDTAVYYCAADRQYGNRGAYYYWGQGTQVTVSS | low polyreactivity |
| QVQLVESGGGLVQAGGSLRLSCAASGRTFNYSAMGWYRQAPGTERELVAAISSSGGRTYYADSVKGRFTISRDNAKITVYLQMNSLKPEDTAVYYCAADSFYYRPEYDYWGQGTQVTVSS | low polyreactivity |
| QVQLVESGGGLVQAGGSLRLSCAASGRTFNYYAMGWSRQAPGKERELVAAITSGGRTNYADSVKGRFTISRDNAKNTVYLQMNSLKPEDTAVYYCATEYYRYRWVGAFRYPVYYWGQGTQVTVSS | low polyreactivity |
| QVQLVESGGGLVQAGGSLRLSCAASGRTFNYYAMGWYRQAPGKERELVAAISGSGGRTYYADSVKGRFTISRDNAKNTVYLQMNSLKPEDTAVYYCNADVGKYPYAHTYWARRYYYLGQGTQVTVSS | high polyreactivity |
| QVQLVESGGGLVQAGGSLRLSCAASGRTFNYYGMGWYRQAPGKERELVAAINSGDNTYYADSVKGRFTISRDNAKNTVYLQMTSLKPEDTAVYYCNTDAFWYYYSWYDYWGQGTQVTVSS | low polyreactivity |
| QVQLVESGGGLVQAGGSLRLSCAASGRTFNYYTMGWYRQAPGKERELVAAISWSGDSTYYADSVKGRFTISRDNAKNTVYLQMNSLKPEDTAVYYCAAGYASGPRPQTAYYYWGQGTQVTVSS | low polyreactivity |
| QVQLVESGGGLVQAGGSLRLSCAASGRTFPFNAMGWYRQAPGKERELVAVINSGGSTYYADSVKGRFTISRDNAKNTVYLQMNSLKPEDTAVYYCNAYSSRYRYNYWGQGTQVTVSS | high polyreactivity |
| QVQLVESGGGLVQAGGSLRLSCAASGRTFPFYAMGWYRQAPGKEREFVASITRSGGSTNYADSVKGRFTISRDNAKNTVYLQMNSLKPEDTAVYYCNAGAVYWGYSRGWYERDYWGQGTQVTVSS | high polyreactivity |
| QVQLVESGGGLVQAGGSLRLSCAASGRTFPGKAMGWYRQAPGKERELVAAISKSSSRTYYADSVKGRFTISRDNAKNTVYLQMNSLKAEDTAVYYCAASSFNNGHRYDYWGQGTQVTVSS | high polyreactivity |
| QVQLVESGGGLVQAGGSLRLSCAASGRTFPGNAMGWYRQAPGKERELVAAITSSGSTNYADSVKGRFTISRDNAKNTVYLQMNSLKPEDTAVYYCNAAWFYVYGVWILDWGQGTQVTVSS | low polyreactivity |
| QVQLVESGGGLVQAGGSLRLSCAASGRTFPGNAMGWYRQATGKERELVATISSGGTTNYADSVKGRFTISRDNAKNTVYLQMNSLKPEDTAVYYCATDTYHHKADYEYWGQGTQVTVSS | low polyreactivity |
| QVQLVESGGGLVQAGGSLRLSCAASGRTFPGYAMGWYRQAPGTEMEMVAAISSGGGTKYADSVKGRFTISRDNAKYTVYVQMNSLKPEDTAVFYCAARGGTYHWGRYYWRQYDYWGQGTQVTVSS | high polyreactivity |
